The source of these data is paper PMC6804851, “Mechanism of floral scent production in Osmanthus fragrans and the production and regulation of its key floral constituents, β-ionone and linalool”.

The target in data set [1] is T1, OfERF61 (Osmanthus fragrans, UniProt A0A5P8PES4 1-303). Description: EMSA; 0, 2, 4, 8 ug ERF61; complex increases with protein; LightShift Chemiluminescent EMSA Kit (Thermo Fisher), manufacturer's instructions; buffer, salt, pH and temperature not stated. As to conditions: protein: recombinant; tags: pET-30a vector tags (not given); label: 3' biotin (sense strand); blunt.

Data set [2] concerns the target T1, OfERF61. Nature of the data set: competition; labeled OC1 probe; signal reduced at 20-fold, not detected at 200-fold excess; LightShift Chemiluminescent EMSA Kit (Thermo Fisher), manufacturer's instructions; buffer, salt, pH and temperature not stated. As to conditions: protein: recombinant; tags: pET-30a vector tags (not given); label: none; blunt.

T1 sequence (A0A5P8PES4 entry or part of it): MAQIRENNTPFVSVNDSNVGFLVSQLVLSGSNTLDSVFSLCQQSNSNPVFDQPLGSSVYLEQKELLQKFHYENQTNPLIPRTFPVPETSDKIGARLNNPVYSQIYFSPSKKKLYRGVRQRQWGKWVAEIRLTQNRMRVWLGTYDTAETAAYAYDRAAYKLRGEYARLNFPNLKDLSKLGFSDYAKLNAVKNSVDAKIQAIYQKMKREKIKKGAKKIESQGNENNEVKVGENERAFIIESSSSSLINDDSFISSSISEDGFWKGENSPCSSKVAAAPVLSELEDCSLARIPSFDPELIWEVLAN

B1: OC1 probe (OfCCD4 promoter, CAACA element) (dsDNA)
DNA 1: AAAGAAAAAAGGACAACAACAGTGGATAATTTGA
DNA 2: TCAAATTATCCACTGTTGTTGTCCTTTTTTCTTT
Take B1: in the data set with OfERF61 [1], the binding result was “binds”.

B2: OC1 unlabeled competitor (dsDNA)
DNA 1: AAAGAAAAAAGGACAACAACAGTGGATAATTTGA
DNA 2: TCAAATTATCCACTGTTGTTGTCCTTTTTTCTTT
Take B2: the binding result with OfERF61 [2] was “binds”.
